Results published in patent publication US9862971B2 (BUNDESREPUBLIK DEUTSCHLAND, LETZTVERTRETEN DURCH DEN …, dated 2018).

T1: Human SLAM (signaling lymphocyte-activation molecule) (human, UniProt Q13291)
T1 sequence: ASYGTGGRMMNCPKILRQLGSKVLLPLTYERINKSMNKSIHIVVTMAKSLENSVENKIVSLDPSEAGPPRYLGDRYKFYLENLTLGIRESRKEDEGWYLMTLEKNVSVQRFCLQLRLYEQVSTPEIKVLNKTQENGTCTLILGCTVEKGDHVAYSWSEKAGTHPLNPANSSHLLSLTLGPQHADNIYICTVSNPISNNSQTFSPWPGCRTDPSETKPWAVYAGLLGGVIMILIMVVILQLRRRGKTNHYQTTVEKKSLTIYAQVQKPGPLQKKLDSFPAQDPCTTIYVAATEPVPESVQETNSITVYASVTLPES

B1: HmutscFvCD20Δ24+4A (other)
chain: MAAAANREHLMIDRPYVLLAVLFVMFLSLIGLLAIAGIRLHRAAIYTAEIHKSLSTNLDVTNSIEHQVKDVLTPLFKIIGDEVGLRTPQRFTDLVKFISDKIKFLNPDREYDFRDLTWCINPPERIKLDYDQYCADVAAEELMNALVNSTLLETRTTNQFLAVSKGNCSGPTTIRGQFSNMSLSLLDLYLGRGYNVSSIVTMTSQGMYGGTYLVEKPNLSSKRSELSQLSMYRVFEVGVIRNPGLGAPVFHMTNYLEQPVSNDLSNCMVALGELKLAALCHGEDSITIPYQGSGKGVSFQLVKLGVWKSPTDMQSWVPLSTDDPVIDRLYLSSHRGVIADNQAKWAVPTTRTDDKLRMETCFQQACKGKIQALCENPEWAPLKDNRIPSYGVLSVDLSLTVELKIKIASGFGPLITHGSGMDLYKSNHNNVYWLTIPPMKNLALGVINTLEWIPRFKVSPALFTVPIKEAGGDCHAPTYLPAEVDGDVKLSSNLVILPGQDLQYVLATYDTSAVEHAVVYYVYSPSRLSSYFYPFRLPIKGVPIELQVECFTWDQKLWCRHFCVLADSESGGHITHSGMVGMGVSCTVTREDGTNAAQPAIEGRMAQVQLVQSGAELVKPGASVKMSCKASGYTFTSYNMHWVKQTPGQGLEWIGAIYPGNGDTSYNQKFKGKATLTADKSSSTAYMQLSSLTSEDSAVYYCARAQLRPNYWYFDVWGAGTTVTVSKISGGGGSGGGGSGGGGSGGSSDIVLSQSPAILSASPGEKVTMTCRASSSVSYMHWYQQKPGSSPKPWIYATSNLASGVPARFSGSGSGTSYSLTISRVEAEDAATYYCQQWISNPPTFGAGTKLELKAAARGSHHHHHH
B2: HmutEGFΔ24+4A (other)
chain: MAAAANREHLMIDRPYVLLAVLFVMFLSLIGLLAIAGIRLHRAAIYTAEIHKSLSTNLDVTNSIEHQVKDVLTPLFKIIGDEVGLRTPQRFTDLVKFISDKIKFLNPDREYDFRDLTWCINPPERIKLDYDQYCADVAAEELMNALVNSTLLETRTTNQFLAVSKGNCSGPTTIRGQFSNMSLSLLDLYLGRGYNVSSIVTMTSQGMYGGTYLVEKPNLSSKRSELSQLSMYRVFEVGVIRNPGLGAPVFHMTNYLEQPVSNDLSNCMVALGELKLAALCHGEDSITIPYQGSGKGVSFQLVKLGVWKSPTDMQSWVPLSTDDPVIDRLYLSSHRGVIADNQAKWAVPTTRTDDKLRMETCFQQACKGKIQALCENPEWAPLKDNRIPSYGVLSVDLSLTVELKIKIASGFGPLITHGSGMDLYKSNHNNVYWLTIPPMKNLALGVINTLEWIPRFKVSPALFTVPIKEAGGDCHAPTYLPAEVDGDVKLSSNLVILPGQDLQYVLATYDTSAVEHAVVYYVYSPSRLSSYFYPFRLPIKGVPIELQVECFTWDQKLWCRHFCVLADSESGGHITHSGMVGMGVSCTVTREDGTNAAQPAMANSDSECPLSHDGYCLHDGVCMYIEALDKYACNCVVGYIGERCQYRDLKWWELRAAARGSHHHHHH
B3: HmutscFvCD20Δ18 (other)
chain: MGSRIVINREHLMIDRPYVLLAVLFVMFLSLIGLLAIAGIRLHRAAIYTAEIHKSLSTNLDVTNSIEHQVKDVLTPLFKIIGDEVGLRTPQRFTDLVKFISDKIKFLNPDREYDFRDLTWCINPPERIKLDYDQYCADVAAEELMNALVNSTLLETRTTNQFLAVSKGNCSGPTTIRGQFSNMSLSLLDLYLGRGYNVSSIVTMTSQGMYGGTYLVEKPNLSSKRSELSQLSMYRVFEVGVIRNPGLGAPVFHMTNYLEQPVSNDLSNCMVALGELKLAALCHGEDSITIPYQGSGKGVSFQLVKLGVWKSPTDMQSWVPLSTDDPVIDRLYLSSHRGVIADNQAKWAVPTTRTDDKLRMETCFQQACKGKIQALCENPEWAPLKDNRIPSYGVLSVDLSLTVELKIKIASGFGPLITHGSGMDLYKSNHNNVYWLTIPPMKNLALGVINTLEWIPRFKVSPALFTVPIKEAGGDCHAPTYLPAEVDGDVKLSSNLVILPGQDLQYVLATYDTSAVEHAVVYYVYSPSRLSSYFYPFRLPIKGVPIELQVECFTWDQKLWCRHFCVLADSESGGHITHSGMVGMGVSCTVTREDGTNAAQPAIEGRMAQVQLVQSGAELVKPGASVKMSCKASGYTFTSYNMHWVKQTPGQGLEWIGAIYPGNGDTSYNQKFKGKATLTADKSSSTAYMQLSSLTSEDSAVYYCARAQLRPNYWYFDVWGAGTTVTVSKISGGGGSGGGGSGGGGSGGSSDIVLSQSPAILSASPGEKVTMTCRASSSVSYMHWYQQKPGSSPKPWIYATSNLASGVPARFSGSGSGTSYSLTISRVEAEDAATYYCQQWISNPPTFGAGTKLELKAAARGSHHHHHH

Columns and labels:
Test in all cases: cell-based or functional assay
[1] = target: T2, CD46 (human, UniProt P15529)
[2] = target: human CD20 (human, UniProt P11836)
[3] = target: T2, CD46; remark: listed apart in the source
[4] = target: EGF-receptor (Homo sapiens (Human), UniProt P00533)
[5] = target: T1, Human SLAM (signaling …)

Binder	titer [t.u./ml] of HIV-1 vector particles on HT1080 cells, concentrated supernatant [1]	titer [t.u./ml] of HIV-1 vector particles on HT1080-CD20 cells, concentrated supernatant [2]	titer [t.u./ml] of HIV-1 vector particles on CHO-BC1 cells, concentrated supernatant [3]	titer [t.u./ml] of HIV-1 vector particles on A-431 cells, concentrated supernatant [4]	titer [t.u./ml] of HIV-1 vector particles on CHO-hSLAM cells, concentrated supernatant [5]
B1	200 t.u./ml	8600 t.u./ml	–	–	–
B2	–	–	800 t.u./ml	58000 t.u./ml	960 t.u./ml
B3	980 t.u./ml	200000 t.u./ml	–	–	–
